In test [1] the target is HSV-1 gB ectodomain gB730 (residues 31-730) (HSV-1 (strain KOS)) (UniProt P06437). The test can be described thus: SDS-PAGE under mildly denaturing conditions.
The target is the same in test [2]. Kind of test: SDS-PAGE under mildly denaturing conditions + Western blot. On the technique in general: In western blotting, separated proteins are transferred to a membrane and probed.

As usually defined, the stoichiometry N is the number of molecules, sites or subunits per partner or assembly.

As for “HSV-1 gB ectodomain gB730 (residues 31-730) (from UniProt P06437 31-730) (domain or fragment)”, the stoichiometry N in test [1] and in test [2] was 3 throughout.

For the origin of these results see article PMC3655159.
